# Assay results: patent US20240325445A1 (Regeneron, published 2024)
# T1: human B-cell maturation antigen (BCMA) on cells (human, UniProt Q02223 1-184)
# T1 sequence: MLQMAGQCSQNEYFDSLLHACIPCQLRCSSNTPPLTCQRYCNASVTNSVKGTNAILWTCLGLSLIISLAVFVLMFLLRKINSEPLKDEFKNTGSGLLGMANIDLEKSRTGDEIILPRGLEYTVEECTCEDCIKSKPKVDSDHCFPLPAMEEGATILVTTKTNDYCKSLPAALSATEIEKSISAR
# T2: BCMA extracellular domain fused to an hIgG1-Fc (human, UniProt Q02223 1-54)
# T2 construct: also called BCMA ecto-hFc; BCMA-hFc; not shown: human IgG1 Fc
# T2 sequence: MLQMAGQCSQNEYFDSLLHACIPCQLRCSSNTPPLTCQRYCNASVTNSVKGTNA
# B1: BCMA 16732 VL-VH chimeric antigen receptor (scFv of mAb16732) (scFv)
# chain: DIQMTQSPSSLSASVGDRVTITCRTSQSIGNYLNWFQQKPGKAPKLLIYTASSLQNGVPSRFTGSGSGTDFTLTISSLQPEDFVIYYCQQSFSTPYTFGQGTKLEIKGGGGSGGGGSGGGGSEVQLVESGGGLVQPGRSLRLSCAASGFTFDDYAMHWVRQAPGKGLEWVSGISWNSGNMGYADSVKGRFTISRDNAKNSLFLQMHSLRAEDTAFYYCAKVRLTAFDFWGQGTLVTVSSTTTPAPRPPTPAPTIASQPLSLRPEACRPAAGGAVHTRGLDFACDIYIWAPLAGTCGVLLLSLVITLYCKRGRKKLLYIFKQPFMRPVQTTQEEDGCSCRFPEEEEGGCELRVKFSRSADAPAYKQGQNQLYNELNLGRREEYDVLDKRRGRDPEMGGKPRRKNPQEGLYNELQKDKMAEAYSEIGMKGERRRGKGHDGLYQGLSTATKDTYDALHMQALPPR
# notes: 3C7 cells; a linker before the hinge or a signal peptide may be present; also called 16732 VL-VH CART; 16732 CAR
# B2: BCMA 16747 VL-VH chimeric antigen receptor (scFv of mAb16747) (scFv)
# chain: DIQMTQSPSSVSASVGDRVTITCRASQGINNWLVWYQQKPGKAPKLLIYAATSLQSGVPSRFSGSGSGTDFTLTISSLQPEDFATYYCQQANSFPPTFGQGTKLEIKGGGGSGGGGSGGGGSQVQLVESGGGLVKPGGSLRLSCAASGFTFSDYYISWIRQAPGKGLEWVSYISSSGSSIKYADSVKGRFTISRDNAKNSLYLQMNSLRAEDTAVYYCAREGGNYGMDVWGQGTTVTVSSTTTPAPRPPTPAPTIASQPLSLRPEACRPAAGGAVHTRGLDFACDIYIWAPLAGTCGVLLLSLVITLYCKRGRKKLLYIFKQPFMRPVQTTQEEDGCSCRFPEEEEGGCELRVKFSRSADAPAYKQGQNQLYNELNLGRREEYDVLDKRRGRDPEMGGKPRRKNPQEGLYNELQKDKMAEAYSEIGMKGERRRGKGHDGLYQGLSTATKDTYDALHMQALPPR
# notes: a linker before the hinge or a signal peptide may be present
# B3: BCMA 16711 VL-VH chimeric antigen receptor (scFv of mAb16711) (scFv)
# chain: DIQMTQSPSSVSASVGDRVTITCRASRGISSWLAWYQQKPGKAPKLLIHAASSLQSGVPSRFSGSGSGTDFTLTISSLQPEDFATYYCQQAISFPFTFGPGTKVDIKGGGGSGGGGSGGGGSQVQLVESGGGVVQPGRSLRLSCAASGFTFSTYGIHWVRQAPGKGLEWVAVILHDGSSNYYAESVKGRFIISRDNSKNTLYLQMNSLRAEDTALYYCTKRYSEAAGPNWFDPWGQGTLVTVSSTTTPAPRPPTPAPTIASQPLSLRPEACRPAAGGAVHTRGLDFACDIYIWAPLAGTCGVLLLSLVITLYCKRGRKKLLYIFKQPFMRPVQTTQEEDGCSCRFPEEEEGGCELRVKFSRSADAPAYKQGQNQLYNELNLGRREEYDVLDKRRGRDPEMGGKPRRKNPQEGLYNELQKDKMAEAYSEIGMKGERRRGKGHDGLYQGLSTATKDTYDALHMQALPPR
# notes: 3C7 cells; a linker before the hinge or a signal peptide may be present; also called 16711 VL-VH CART; 16711 CAR
# What was measured:
# [1] = target: human B-cell maturation antigen (BCMA) on cells (human) (UniProt Q02223); assay: cell-based or functional assay
# [2] = target: T1, human B-cell maturation antigen (BCMA) …; assay: cell-based or functional assay
# [3] = target: irrelevant protein fused to hIgG1-Fc (human); assay: flow cytometry; 10 ug/ml Fc isotype control on Jurkat/NFATLuc cells carrying the CAR, Alexa 647 secondary antibody
# [4] = target: T2, BCMA extracellular domain fused to an …; assay: flow cytometry; 10 ug/ml BCMA ecto-hFc on Jurkat/NFATLuc cells carrying the CAR, Alexa 647 secondary antibody
# Description: Relative cell surface expression of the BCMA CAR constructs in Jurkat/NFATLuc cells was accessed by flow cytometry. […] Cells were then washed and fixed using a 50% solution of BD Cytofix (BD, Cat #554655) diluted in staining buffer. Samples were run on the Intellicyt iQue flow cytometer and analyzed by FlowJo 10.2 to calculate the mean fluorescent intensity (MFI). The signal to noise ratio (S:N) is determined by taking the ratio of the BCMA-hFc or Fc isotype control MFI to the secondary antibody alone MFI.
# [5] = target: T1, human B-cell maturation antigen (BCMA) …; assay: cell-based or functional assay; remark: listed apart in the source
molecule,measurement,setting,value
control chimeric antigen receptor with an irrelevant scFv (17363),"percent cytotoxicity (calcein release), H929 target cells, T effector:target ratio 50, mean",[1],-0.8%
same,"percent cytotoxicity (calcein release), MOLP8 target cells, T effector:target ratio 50, mean",[1],-3.1%
B1,"CAR-T Max Activity (NFAT-luciferase, S:N), APC Daudi",[2],4.9 S:N (highest RLU / lowest RLU)
same,"CAR-T Max Activity (NFAT-luciferase, S:N), APC RAJI",[2],16.8 S:N (highest RLU / lowest RLU)
same,"CAR-T Max Activity (NFAT-luciferase, S:N), APC RPMI8226",[2],5.2 S:N (highest RLU / lowest RLU)
same,S:N (Isotype-hFc) (ratio of MFI to secondary antibody alone),[3],1
same,S:N (BCMA-hFc),[4],13.1 ratio of MFI to secondary antibody alone
B2,"CAR-T Max Activity (NFAT-luciferase, S:N), APC Daudi",[2],14 S:N (highest RLU / lowest RLU)
same,"CAR-T Max Activity (NFAT-luciferase, S:N), APC RAJI",[2],38.9 S:N (highest RLU / lowest RLU)
same,"CAR-T Max Activity (NFAT-luciferase, S:N), APC RPMI8226",[2],12.5 S:N (highest RLU / lowest RLU)
same,"percent cytotoxicity (calcein release), H929 target cells, T effector:target ratio 0.78, mean",[5],0.9%
same,"percent cytotoxicity (calcein release), H929 target cells, T effector:target ratio 1.56, mean",[5],1.8%
same,"percent cytotoxicity (calcein release), H929 target cells, T effector:target ratio 3.13, mean",[5],2.9%
same,"percent cytotoxicity (calcein release), H929 target cells, T effector:target ratio 6.25, mean",[5],4.2%
same,"percent cytotoxicity (calcein release), H929 target cells, T effector:target ratio 12.5, mean",[5],9.3%
same,"percent cytotoxicity (calcein release), H929 target cells, T effector:target ratio 25, mean",[5],19.4%
same,"percent cytotoxicity (calcein release), H929 target cells, T effector:target ratio 50, mean",[5],29.3%
same,"percent cytotoxicity (calcein release), MOLP8 target cells, T effector:target ratio 0.78, mean",[5],-2.9%
same,"percent cytotoxicity (calcein release), MOLP8 target cells, T effector:target ratio 1.56, mean",[5],0.2%
same,"percent cytotoxicity (calcein release), MOLP8 target cells, T effector:target ratio 3.13, mean",[5],2.2%
same,"percent cytotoxicity (calcein release), MOLP8 target cells, T effector:target ratio 6.25, mean",[5],5.8%
same,"percent cytotoxicity (calcein release), MOLP8 target cells, T effector:target ratio 12.5, mean",[5],8.2%
same,"percent cytotoxicity (calcein release), MOLP8 target cells, T effector:target ratio 25, mean",[5],10.9%
same,"percent cytotoxicity (calcein release), MOLP8 target cells, T effector:target ratio 50, mean",[5],14%
same,S:N (Isotype-hFc) (ratio of MFI to secondary antibody alone),[3],1.3
same,S:N (BCMA-hFc),[4],209 ratio of MFI to secondary antibody alone
B3,"CAR-T Max Activity (NFAT-luciferase, S:N), APC Daudi",[2],2.6 S:N (highest RLU / lowest RLU)
same,"CAR-T Max Activity (NFAT-luciferase, S:N), APC RAJI",[2],7.9 S:N (highest RLU / lowest RLU)
same,"CAR-T Max Activity (NFAT-luciferase, S:N), APC RPMI8226",[2],1.8 S:N (highest RLU / lowest RLU)
same,S:N (Isotype-hFc) (ratio of MFI to secondary antibody alone),[3],1.2
same,S:N (BCMA-hFc),[4],3.7 ratio of MFI to secondary antibody alone
